B1: efnB1: pre-clustered ephrin ligand on laminin-coated surface (protein, UniProt P98172 28-346, looked up)
Ephrin-B1: LAKNLEPVSWSSLNPKFLSGKGLVIYPKIGDKLDIICPRAEAGRPYEYYKLYLVRPEQAAACSTVLDPNVLVTCNRPEQEIRFTIKFQEFSPNYMGLEFKKHHDYYITSTSNGSLEGLENREGGVCRTRTMKIIMKVGQDPNAVTPEQLTTSRPSKEADNTVKMATQAPGSRGSLGDSDGKHETVNQEEKSGPGASGGSSGDPDGFFNSKVALFAAVGAGCVIFLLIIIFLTVLLLKLRKRHRKHTQQRAAALSLSTLASPKGGSGTAGTEPSDIIIPLRTTENNYCPHYEKVSGDYGHPVYIVQEMPPQSPANIYYKV
modifications: pre-clustered
notes: pre-clustered ephrin ligand on laminin-coated surface
B2: efnB3: recombinant Efn ligand containing a His-Tag (R&D Systems), pre-clustered with anti-His antibody (protein, UniProt Q15768 28-226, looked up)
extracellular domain: LSLEPVYWNSANKRFQAEGGYVLYPQIGDRLDLLCPRARPPGPHSSPNYEFYKLYLVGGAQGRRCEAPPAPNLLLTCDRPDLDLRFTIKFQEYSPNLWGHEFRSHHDYYIIATSDGTREGLESLQGGVCLTRGMKVLLRVGQSPRGGAVPRKPVSEMPMERDRGAAHSLEPGKENLPGDPTSNATSRGAEGPLPPPSMP
modifications: extracellular domain His tag, pre-clustered
notes: recombinant Efn ligand containing a His-Tag (R&D Systems), pre-clustered with anti-His antibody

Tested on: human fetal brain-derived neural stem cells (hNSC)
Assay: hNSC growth on ephrin-ligand repulsive substrates
Format: cell-based
Conditions: for substrate effect on neuronal cell growth: laminin-coated surfaces containing pre-clustered efn ligand
Protocol: Fetal brain-derived neural stem cells (hNSC): In order to evaluate the effect of xEFN peptides on human neuronal cells, StemPro hNSC were purchased from ThermoFisher Scientific (Cat. no. A15654) and cultured according to the manufacturer's recommended protocol. Briefly, cells were grown in non-adherent neurosphere suspension cultures in StemPro NSC serum-free media (NSC-SFM) (Cat. no. A10509-01) supplemented with 2 mM GlutaMAX-I supplement, 6 U/mL heparin, and 200 μM ascorbic acid (Sigma-Aldrich, Cat. no. A8960). Culture media was changed every 2 days and cells were passaged every 7 days as undifferentiated hNSC. To induce differentiation into neuronal cells, hNSC neurospheres were dissociated into single-cell suspensions using StemPro Accutase for 5 minutes at 37° C. followed by mechanical pipetting. hNSC were then plated onto Geltrex-coated culture vessels at a concentration of 2×10^4 cells/cm^2 in neuronal differentiation media consisting of NSC media without bFGF or EGF and supplemented with B-27 supplement (ThermoFisher Scientific) for 3 days prior to performing further in vitro assays.
Glial-bound efn ligands have been associated with mediating the major repulsive milieu for neuronal process in the CNS. […] Moreover, assays on the repulsive nature of efn ligand-presenting surfaces have been a mainstay in axonal guidance studies for many decade. The use of xEFN peptides to antagonize this repulsive signaling from efn ligand substrates was evaluated on human fetal brain-derived neural stem cells (hNSC).
Recombinant Efn ligands (A2, A4, and B3) containing a His-Tag were purchased from R&D Systems, and were pre-clustered using an anti-His antibody (Genetex) for 30 min. The pre-clustered Efn ligands, or anti-his antibody alone, (control) were then mixed with laminin from human placenta (Sigma-Aldrich) in suspension and used to coat the growth surface of a 24-well plate. […] The entire wells were then scanned using an EVOS FL Auto fluorescent microscope and the images were analyzed in the ImageJ software to calculate cell coverage area.

Molecule	substrate effect on neuronal cell growth	hNSC confluence on pre-clustered efn ligand substrate (no peptide, compared to the laminin-only control confluence)
B1	highly repulsive substrates	
B2	highly repulsive substrates	44.61+/−1.61%
